Experimental data as given in publication PMC5137435.

B1: Fig1 oligo X=G (dsDNA)
DNA 1: AGCGTGGGGGT
DNA 2: TACCCCCACGC
modifications: 5mC at strand 1 pos 3 and strand 2 pos 9
B2: Fig1 oligo X=A (dsDNA)
DNA 1: AGCGTGGGAGT
DNA 2: TACTCCCACGC
modifications: 5mC at strand 1 pos 3 and strand 2 pos 9
B3: Fig1 oligo X=T (dsDNA)
DNA 1: AGCGTGGGTGT
DNA 2: TACACCCACGC
modifications: 5mC at strand 1 pos 3 and strand 2 pos 9

What was measured:
Experiment in all cases: fluorescence polarization
WT1 ZF2-4 Q369R (-KTS) [1] = target: T1, WT1 ZF2-4 Q369R (-KTS) (Homo sapiens, UniProt P19544-4 350-437, Q369R)
WT1 ZF2-4 Q369K (-KTS) = WT1 ZF2-4 Q369K (-KTS) (Homo sapiens, UniProt P19544-4 350-437, Q369K)
WT1 ZF2-4 Q369H (-KTS) = WT1 ZF2-4 Q369H (-KTS) (Homo sapiens, UniProt P19544-4 350-437, Q369H)
WT1 ZF2-4 Q369R (-KTS) [2] = target: T1, WT1 ZF2-4 Q369R (-KTS); remark: listed apart in the source
Egr1 three-finger domain = Egr1 three-finger domain (UniProt P18146 335-423)
WT1 ZF2-4 Q369P (-KTS) = WT1 ZF2-4 Q369P (-KTS) (Homo sapiens, UniProt P19544-4 350-437, Q369P)

Binder	Kd (WT1 ZF2-4 Q369R (-KTS) [1]) [nM]	Kd (WT1 ZF2-4 Q369K (-KTS)) [nM]	Kd (WT1 ZF2-4 Q369H (-KTS)) [nM]	binding signal (WT1 ZF2-4 Q369R (-KTS) [2])	binding result (Egr1 three-finger domain)	binding result (WT1 ZF2-4 Q369P (-KTS))
B1	24	14	< 3	–	–	–
B2	–	–	8	~5 fold lower affinity than X=G	–	–
B3	–	–	–	–	binds	binds
